According to PMC10138348 (2023):

Key:
[1] = target: T1, F4, TNFα-derived peptide with a myristoylated lysine and fluorescein-labelled cysteine in the +2 position (UniProt P01375, myristoyl residue on the lysine side chain; 5-acetamidofluorescein coupled to a cysteine residue at position +2); experiment: FP; 0 uM BSA, no NAD+
[2] = target: T1, F4, TNFα-derived peptide with a …; experiment: FP; 0.3 uM BSA, no NAD+
[3] = target: T1, F4, TNFα-derived peptide with a …; experiment: FP; 3 uM BSA, no NAD+

B1: SIRT2 (enzyme)
chain: MAEPDPSHPLETQAGKVQEAQDSDSDSEGGAAGGEADMDFLRNLFSQTLSLGSQKERLLDELTLEGVARYMQSERCRRVICLVGAGISTSAGIPDFRSPSTGLYDNLEKYHLPYPEAIFEISYFKKHPEPFFALAKELYPGQFKPTICHYFMRLLKDKGLLLRCYTQNIDTLERIAGLEQEDLVEAHGTFYTSHCVSASCRHEYPLSWMKEKIFSEVTPKCEDCQSLVKPDIVFFGESLPARFFSCMQSDFLKVDLLLVMGTSLQVQPFASLISKAPLSTPRLLINKEKAGQSDPFLGMIMGLGGGMDFDSKKAYRDVAWLGECDQGCLALAELLGWKKELEDLVRREHASIDAQSGAGVPNPSTSASPKKSPPPAKDEARTTEREKPQ
A Kd [1] of 12.3 nM, a Kd [2] of 9.4 nM and a Kd [3] of 7 nM were found for B1 in this work.
